Here are results for one molecule from PMC1409677.

The data set concerns the target human alpha-thrombin (Homo sapiens, UniProt P00734;P00734 328-363;364-622). Put plainly: FRET.

For TAAGTTCATCTCGGTTGGTGTGGTTGG (structured_DNA) [APT (thrombin aptamer with 12 nt 5' toehold)], the binding result is reported as “binds”.
